T1: GST–hIC EpoR (273–508aa), cytoplasmic domain of human EpoR (human, UniProt P19235 273-508)
T1 construct: also called GST–EpoR; source: E. coli BL21, purified on glutathione Sepharose beads
T1 sequence (looked up): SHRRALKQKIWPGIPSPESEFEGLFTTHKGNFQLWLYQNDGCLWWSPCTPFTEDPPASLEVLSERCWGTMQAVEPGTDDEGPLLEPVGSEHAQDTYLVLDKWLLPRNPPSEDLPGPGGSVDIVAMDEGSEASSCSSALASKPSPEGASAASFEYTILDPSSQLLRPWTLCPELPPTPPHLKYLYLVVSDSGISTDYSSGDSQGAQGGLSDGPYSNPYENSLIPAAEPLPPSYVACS


Key:
[1] = target: T2, bacterially expressed recombinant p27 (full–length p27) (human, UniProt P46527 1-198); assay: pull-down; GST fusion proteins bound on glutathione Sepharose beads incubated for 2 h at 4 °C with purified bacterial p27, p27 mutants or p27 fragments; extensive washing; bound p27 detected by Western blot; conditions: both partners purified
T2 construct: p27^Kip1 (CDKN1B), human, full length; No tag is named for the full-length protein; also called purified p27; source: bacteria, purified by heat treatment (95 °C, ultracentrifugation)

[2] = target: T1, GST–hIC EpoR (273–508aa), cytoplasmic …; assay: as above; conditions: both partners purified

binding result [1] | binding result [2] | Binder
binds |  | GST–hIC EpoR N (273–433aa) (domain or fragment, human, UniProt P19235 273-433, looked up, also called N–terminal truncated cytoplasmic domain of EpoR; source: E. coli BL21, purified on glutathione Sepharose beads) SHRRALKQKIWPGIPSPESEFEGLFTTHKGNFQLWLYQNDGCLWWSPCTPFTEDPPASLEVLSERCWGTMQAVEPGTDDEGPLLEPVGSEHAQDTYLVLDKWLLPRNPPSEDLPGPGGSVDIVAMDEGSEASSCSSALASKPSPEGASAASFEYTILDPSS
 | binds | p27 ΔSH3 (amino acids 94, 95, 96 PPK to GCA) (natural protein, human, UniProt P46527 1-198, looked up, p27^Kip1 (CDKN1B), human, with point mutations in the proline-rich region; also called p27 ∆SH3; ΔSH3 mutant; source: bacteria, purified by heat treatment) MSNVRVSNGSPSLERMDARQAEHPKPSACRNLFGPVDHEELTRDLEKHCRDMEEASQRKWNFDFQNHKPLEGKYEWQEVEKGSLPEFYYRPPRGCAGACKVPAQESQDVSGSRPAAPLIGAPANSEDTHLVDPKTDPSDSQTGLAEQCAGIRKRPATDDSSTQNKRANRTEENVSDGSPNAGSVEQTPKKPGLRRRQT
 | binds | p27 CK– (R30A, L32A, F62A, F64A) (natural protein, human, UniProt P46527 1-198, looked up, p27^Kip1 (CDKN1B), human, with four point mutations; source: bacteria, purified by heat treatment) MSNVRVSNGSPSLERMDARQAEHPKPSACANAFGPVDHEELTRDLEKHCRDMEEASQRKWNADAQNHKPLEGKYEWQEVEKGSLPEFYYRPPRPPKGACKVPAQESQDVSGSRPAAPLIGAPANSEDTHLVDPKTDPSDSQTGLAEQCAGIRKRPATDDSSTQNKRANRTEENVSDGSPNAGSVEQTPKKPGLRRRQT
